In experiment [1] the target is T1, HCB, recombinant BoNT preparation coated for ELISA (Clostridium botulinum, BoNT/B subtype B1).
T1 chain: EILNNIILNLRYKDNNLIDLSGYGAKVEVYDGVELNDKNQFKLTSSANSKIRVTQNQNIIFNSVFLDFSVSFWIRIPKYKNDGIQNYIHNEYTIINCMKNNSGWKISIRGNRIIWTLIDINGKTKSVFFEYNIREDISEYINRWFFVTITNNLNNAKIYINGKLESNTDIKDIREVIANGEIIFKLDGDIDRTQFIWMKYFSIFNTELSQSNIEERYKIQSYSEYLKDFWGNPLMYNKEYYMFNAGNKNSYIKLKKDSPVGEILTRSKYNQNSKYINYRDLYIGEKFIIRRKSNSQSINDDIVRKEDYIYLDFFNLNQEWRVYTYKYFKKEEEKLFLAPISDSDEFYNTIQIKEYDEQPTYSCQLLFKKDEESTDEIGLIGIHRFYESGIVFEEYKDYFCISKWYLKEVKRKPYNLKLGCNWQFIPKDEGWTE
The experiment can be described thus: ELISA.

Experiment [2] concerns the target T2, HCB, receptor-binding domain of BoNT/B1 (E859–E1291) (UniProt P10844). The experiment can be described thus: SEC.
For experiment [3], the target named is T2, HCB, receptor-binding domain of BoNT/B1 …. The experiment can be described thus: crystal structure.

Seven molecules from PMC7138525 (Cell reports, 2020) can be followed below.

B1: VHH JLO-G11, His6-tagged thioredoxin fusion with carboxy-terminal E-tag (VHH)
VHH: QVQLAESGGGLVQPGGSLRLSCEASGFHLEHFAVGWFRQAPGKEREGVSCISASGDSTTYADSVKGRSTISKDNAKNAVYLQMDSLRPEDTGDYYCAASHFSVCGKNIRKIEYRYWGQGTPVTVSS
On to B1, for which the binding result in experiment [1] is “binds”.

B2: VHH JLK-G12 (from GST fusion) (VHH)
VHH: QVQLVESGGGLVQAGGSLRLSCAASEFRAEHFAVGWFRQAPGKEREGVSCVDASGDSTAYADSVKGRFTISRDNNKNVVYLQMDSLEPEDTGDYYCGASYFTVCAKSMRKIEYRYWGQGTQVTVSS
In the case of B2, the binding result in experiment [2] is “binds”.

B3: VHH JLK-G12, His6-tagged thioredoxin fusion with carboxy-terminal E-tag (VHH)
VHH: B2 VHH
Take B3: in experiment [1], the binding result is “binds”.

B4: VHH JLI-H11 (from GST fusion) (VHH)
VHH: QVQLVESGGGLVQPGESLRLSCGASGMSLDYYAIAWYRQAPGKEREGVSCISVSGSSAQYLDSVRGRFIISKDNTKSTAYLQMNSLKPEDTAVYYCAALADCAGYASLTFDFDSWGQGTQVAVSS
Regarding B4, the binding result in experiment [2] is “binds”.

B5: VHH JLI-H11, His6-tagged thioredoxin fusion with carboxy-terminal E-tag (VHH)
VHH: B4 VHH
Take B5: in experiment [1], the binding result is “binds”.

B6: VHH JLI-G10 (VHH)
VHH: QVQLVESGGGLVQAGGSLRLSCAASILTYDLDYYYIGWVRQAPGKEREGVSCISSTDGATYYADSVKGRFTISRNNAKNTVYLQMNNLKPEDTAIYYCAAAPLAGRYCPASHEYGYWGQGTQVTVSS
On to B6, for which the binding result in experiment [3] is listed as “binds”.

B7: VHH JLI-G10, His6-tagged thioredoxin fusion with carboxy-terminal E-tag (VHH)
VHH: B6 VHH
Turning to B7, the binding result in experiment [1] is reported as “binds”.
